Measured values: the DeepSol protein solubility set

Assay: soluble on expression in E. coli; label from the status in PepcDB or PDB records
For “MNSNMVFARVNEADVTEAILDGFYSSLKKHLRSDVIVVGAGPAGLTAAWRLAEAGARVLIVEQNNYLGGGLWLGGYFMNPVTIRAPAQRILDELEVPYEAVKPGLYRTKGPLLAAKLAARALEAGAEVLNLTMLDDVIVENSRVAGVVVNWSPVQGLPRQITCVDPVGLRAEYVVDATGHDAVVTRKLAERGMVEASKLGPMWVERSEDLVVEKTGEVYPGLVVAGIAVAEVYGLPRMGPTFGAMLLSGEKAAALIGEKLGLKVKVAAAPASQA”, the “soluble on expression in E. coli” value was “soluble”. In the case of “MNSRQQSILQMVVDKGQMSVAELAKITGVSEVTIRQDLNTLEKQSYLRRAHGFAVSLESDDVETRMMTNYTLKRRLAEFAASLVSPGESVFIENGSSNALLARTLAEQKDVTIITVSSYIAHLLKETPCEVILLGGIYQKKSESMVGPLTRQFIHQVHFSKAFIGIDGWQADTGFTGRDMMRSDVVNAVLEKGSEAIVLTDSSKFGCVHPYPLGPLSRFHRVITDSKISASDQMQLEHAGLLVNVIGSSV”, the “soluble on expression in E. coli” value is reported as “not soluble”. For “MNSSESSSNSEVSSSKTRTVKHAMGTSDNIPANPKRIVVLTNEGTEALLALGIKPVGAVKSWKGDPWYDYLKDDMKGVKNVGLETEPNVEAIAELKPDLIIGNKVRQEKIYDQLNAIAPTVFAESLAGNWKDNLTLYANAVNKADKGKEVIADFDKRVSDLKNKLGDQTNKTVSVVRFLSGESRIYYTDSFPGIILDQLGFKRPEKQVELFKKQKDQFTFSTDSKESIPDMDADVLFYFTYKADNAKENEKWANQWTSSSLWKNLKAVKSGNAHEVDDVVWTTAGGIKAANYLLDDIETYFLKTKLEHHHHHH”, the “soluble on expression in E. coli” value was “not soluble”. For “MNTCPLCHSTDLVAYHHDKRRPYQQCQRCALVSVPAEFYLSRDEEKAEYDKHENHPQDLGYQQFLDRTLAPLLARFESTALGLDFGCGEGKALSLMAQARGYRVENYDLYYANHPELLTRQYDFITLTEVIEHVSDADALLTQLKGMLKPKGILAVMTKRVLNPTAFSTWHYKNDPTHINFYAEATFQWLAEHYGWRLEVIDKDVVFLYQANLEHHHHHH”, the “soluble on expression in E. coli” value was “soluble”. With “MNTDAIESMVRDVLSRMNSLQGEAPAAAPAAGGASRSARVSDYPLANKHPEWVKTATNKTLDDFTLENVLSNKVTAQDMRITPETLRLQASIAKDAGRDRLAMNFERAAELTAVPDDRILEIYNALRPYRSTKEELLAIADDLESRYQAKICAAFVREAATLYVERKKLKGDD” the “soluble on expression in E. coli” value was “soluble”. For “MNTFKETLFSLKKSNYLLNESAQILNDCVVNNNEIDERLRNSIKFALGIINLASYCLKNEQEQLDHELNHGNEAPWEFSFNEAEQLIECTVKNNFGNEKLVDLIFHIGDAMETYRTTNIKFRVPKSYYDAKQQIRKVIKN”, the “soluble on expression in E. coli” value was “soluble”. In the case of “MNTLGLYQSDWSKAPPHAHAYHVKTTREQGHYHLIEGFTQPANGSNTDQHTHYYTGITSFENGHFHRYYGISGPAIPLADGTHYHEIEETTYLAYNEPIEIQYGGVVYDPGDDRRKTHRHTLKGKTREIVGNEPLGR”, the “soluble on expression in E. coli” value is reported as “soluble”. With “MNTMKNVTKRSFQTIAIVGKPRHDNALETHLAVYNWLKDRHYSVLVEEKIAEQLQLPNGKRIEEIGQIADLVIVIGGDGNMLGMARSLAKYQVPLIGINRGNLGFLTDIAPQSAFEQLYSCLEKGEFIIEQRFLLEAQIEQNGKIISANNALNEVAIHPTQVARIIEFEVYIDSKFAFSQRSDGLIIATPTGSTAYSLSAGGPILTPNMNAIALVPMHPHALSSRPLVIDGDSHISLRFAQYNQPNLEISCDGQDDLPFTPEDRIIVRKSPDILHLLHLKDYNYFTVLGSKLGWSSKLF” the “soluble on expression in E. coli” value was “soluble”. In the case of “MNTSTTKPFAWPAHVFKEYDIRGRAGEELDESFAYWLGRAFADMMQKEGEKRAVVGHDNRLSSPGLHRALKDGLLDGGCDVVDIGLSTTPMFYYSLYYTNIPCGMIITASHNPGDENGFKIAMGKTTIYGERIQALRRAMERLSQEQPRPETARGREETLDLAPAYIKMLKEKIQLGPRKLKVVVDCGNGTPSIIAPQVLKEWGCDVVPLYCESDPTFPNHHPDPVVPENLTALIEMVRKEQADLGIAFDGDGDRIGVVDETGAIRWGDQLMVLFWREILKRYPGADAPVEVKCSQALVEEIERLGGKPFFHRTGHSHVKATLRRRPEIPFAGEMSGHLFFNDEFYGYDDALYAAGRLLRLLSHDERPLSEWFADVPRYAATPETRVACPEEKKPAAIAAVKNQFAGRYPVVDVDGARIQFPEGWGLVRPSNTQPILVLRAEAKTEEALAEIKRQLADCLHALELCIDW”, the “soluble on expression in E. coli” value is reported as “soluble”. In the case of “MNTVLIPPGPGGYGKGLWLPVGSGKKVLSLTGREIHPVAIEIGALTQSEVVNGFADIPPDNDILCVVINCAGSLRCGLYPQKGIPTINVLPTWRAGPLAQFITEENYVSGVTMEQLVLVDTAEAPDGKPETTQEPAPRVISTPPSPRGAEKLVRMVEQTGTAVGHVIALLFAASREAVDVSLRN”, the “soluble on expression in E. coli” value is reported as “not soluble”. With “MNVAAILLAAGKSQRMGLCKQLLQLADRPAVAHCLDTLTAVGLQEIIVVVSPGGDEVAAAVSRYPVVVAVNESDSCDMADSARTGLARLISDPTGVLVALADHPLVRPDTVRALVNRHGEEPDAILIPVHDGAKGHPTLFPAAILQEIGQVATLRDIIGRHRDKVRLVPVADEGVVMDMDVWEDYLAMAERLNPPGLEHHHHHH” the “soluble on expression in E. coli” value was “soluble”. In the case of “MNVAKNRKEKIAGLFLMCPGSGLDMNFVNTIQPGALQYLMKKGSINYPASKNGYPALLTVECLEEFLNTDISKTSPKVIDIQCPVLTVHGIEDNIVPVENSKKLMQRMASTYKDFHRIPGVDHNFDLDEEVLKRLGQLMDVIRENESKKLKAKI”, the “soluble on expression in E. coli” value is reported as “not soluble”. In the case of “MNVANNNCGQMLSDSSESSEPPRAQAGAVFGKKDKGKKADTKKKNTATEGSKRVKKEKKKDDGEAAKGDPTNKTNMTPAPPQTHPIVEQWVLRALDVGVDKLREEFRGLAKYTRPDMTQVMFNANQSPDIAITKNRYQDVPCQDQSAVKLDQPSPCNYIHANYVGCPMIPEKRFICAQGPLDQTIDEFWWMVIQNKVEQIVMLCKTVEMGKLKCAQYWPAAQGEKLTLKSGCVVENVSGSKPMERDPEIQITMLNLTYSGGQTMSVRHLQWTEWPDRGVPPCKLTSLELLSAIRGSKVPIVVHCSAGIGRTGTIVAIEYILEKIAENKPCPPMPELVKALRDQRAFSIQNDVQYLFIHRVMLNYFLEKYKEKYAALLTAENVAKYDKFIKDYNAAVGQ”, the “soluble on expression in E. coli” value is reported as “not soluble”. In the case of “MNVIEVEDVSFRYGNSREYSLRHINLEIRKGEFLGIIGPSGSGKSTFCLTLNGLIPHSIAGEFHGNVIVDGLNTREHSVSELSTKVGLVFQNPDSQLFNMTVLEEVAFALENLGIERDEMWRRIRWALKLVRLWDKREEFPPNLSGGEKQRLAIASVLVMKPKVLVLDEPTSQLDPLGREEVLGLIKLLNKEEKITIILVEHNTDFLLEHADRIVVFDKGRIVLEGKPEDVFENVEFLRTIGVKLPTRVKIGYELKKRGLVERAVLTRDEVVEVLKWAYLRGKS”, the “soluble on expression in E. coli” value is reported as “soluble”. In the case of “MNVKPLQAKDVAEKVLFGELFILDVRNEADYEDWKIEGKQVSSINKPYFDLLDGVDHIVSELPKDKDVLVVCAKEGSSIFVAEQLTEAGLQNIYYLAGGMKAWSEYVKPIKVGNLKDGGSMYQFNRLGKGCLSYMVISNGEAAVIDAVRTAEAYEEFAKEHGVTIKNVMDTHLHADHISGGRKLAEKVGGTYWLPPKDAEEVVFSYEPLVEGSVITVGGTKIEIDALYSPGHTIGSTSFIVDDSYLLSGDILFVDSIGRPDLAGKAEDWVSDLRNTLYSRYKELSQNLVVLPAHYSKVSEMNESGIVSAKLKDLFANNAGLNIEDEGEFRKVVTENLPPQPNAYEEIRQTNMGKIHPSVDKEREMEIGPNRCAVHE”, the “soluble on expression in E. coli” value is reported as “not soluble”. With “MNVMTEKKKLVVWVPLPPNSSWRGEGIAQTIENIVRNISPERKIEIVVSSKHAEMLVGLEKSNPNISVLTLGFRGKSTKKTIGYVSLNEVEKDSLWDLVIAKLPIIPAIFRKVGMYVSQLEYLLSLYIYSHLQRRGRFSSNNCRVWLPTPIIPYTHLLGGEKFVSFWDPFVFEYNKEFPLTAEYFVKKLSKHFSNASAIITQSRANKDYLETVMGIESSKINVIYNGSPDYSEFKKQQSNLSFSEVWSKSEFSGASKKAAFEALVNHQLNFSVLWRLLTKNKVSNRKIVLISTQNRPYKGFDQLFVLINELCLRRDNYDFIFTCNVPTKLKERYPSLYERIHEVTRVDNYLHASLYLMSDIVLHPSNVEGGLGAYPQYEASSVGKPSLINTGRHVNEMAEEGFDVDLLSSNFVNTKETVDKIEKLINSEEYMRQNIDAINRLKISWKESASNYENVFFGNENA” the “soluble on expression in E. coli” value was “not soluble”. In the case of “MNVPFWTEEHVRATLPERDAESHKGTYGTALLLAGSDDMPGAALLAGLGAMRSGLGKLVIGTSENVIPLIVPVLPEATYWRDGWKKAADAQLEETYRAIAIGPGLPQTESVQQAVDHVLTADCPVILDAGALAKRTYPKREGPVILTPHPGEFFRMTGVPVNELQKKRAEYAKEWAAQLQTVIVLKGNQTVIAFPDGDCWLNPTGNGALAKGGTGDTLTGMILGMLCCHEDPKHAVLNAVYLHGACAELWTDEHSAHTLLAHELSDILPRVWKRFELEHHHHHH”, the “soluble on expression in E. coli” value is reported as “soluble”. In the case of “MNVPGAAPFLTAQSEEEATEVLESIHPDPEKSGARYIMSDERMAVDIFMAMPEWTLDTEGYMQPYWTGDGYQYLPSKRYFDSMESRLHFLDGNGLKQYRLVYETWAYQTQEAGYKQVYNFLYGSSIPEVDSGYVKIFEYVKGAKITGTVSPNETVNINTTILTGQGRTFELEHHHHHH”, the “soluble on expression in E. coli” value is reported as “soluble”. In the case of “MNVRDLSFKLNSIFDINKYEHIDKNLNGLQVGNINAKVNKVAFAVDASFSTLKEAKGNDFLITHHGIFWSKKERIVSNMYDKTKFLIENNLALYSVHLPMDAHSVYSHSKVFSDFLGLKNSFAFANYGGVNLGIIADSVFSFSEILEKIKKENKHILFSKKFKESVNKVAIVSGSGYSFFEEALCHDVDLFITGDTSHQIYSLAEEFGVNLIFAGHYFTETFGLIKLMEDFKIQEDLEVKFICKNTNLLEHHHHHH”, the “soluble on expression in E. coli” value is reported as “not soluble”. In the case of “MNVRVLVVEDERDLADLITEALKKEMFTVDVCYDGEEGMYMALNEPFDVVILDIMLPVHDGWEILKSMRESGVNTPVLMLTALSDVEYRVKGLNMGADDYLPKPFDLRELIARVRALIRRKSESKSTKLVCGDLILDTATKKAYRGSKEIDLTKKEYQILEYLVMNKNRVVTKEELQEHLWSFDDEVFSDVLRSHIKNLRKKVDKGFKKKIIHTVRGIGYVARDE”, the “soluble on expression in E. coli” value is reported as “soluble”. For “MNVSIKNTDAVNAIATVAIEKADYANEVEKALRTYRQRANVPGFRKGMVPMGMIKKMYGKGVKAEEINRVVGRELYRYIAENKLNVLGEPMPNEELQKEYDFDTTDDFEFVFDLALSPVVDVVVDKSIRVPYYTIQPTEEMIDRQIESMRSSYGHSVEADEVTANDVVKGRLCELEDGQPKEGGICVEEAMLLPAYMKDEEEKNKFVGAAKNSVVVFNPSKAYNNNEYELSSLLKVDKSAIGEHTGDFSFEISSISRHEKAELNEEFFKQAFGEETDIKNEADLRVKVTEGVREQFTAESDYKFLIDLRRELEAQVGELQFPDALLKRWLKLSHTEWSDEELEKQYPAMIKDLTFHVIKEDLVKKNDIVVTPQEVRNFAIIVAKNQFAQYGMSAVPQDALERYANTMMEKEDARRNFFDRVTENKLAAALKEKLDIDAKTVSPDEFNKLMTEQPASAE”, the “soluble on expression in E. coli” value was “not soluble”. In the case of “MNVYHYETSGGKDLILEYIDGLPKNEKAEGLTILEKLEKEGLEALEVLNTRQLRGKLWEIKFYRSNRIMYVVADEDNIYLVHACKKQKGKAEKFELDTAIKRVKELEKELGKKFI”, the “soluble on expression in E. coli” value is reported as “not soluble”.
